# Experimental data as given in patent US20240109974A1 (SHANDONG SIMCERE BIOPHARMACEUTICAL, published 2024).
# T1: human TNFR2 on the surface of CHO-TNFR2 cells (human, UniProt P20333 23-461)
# T1 construct: whole, on cells
# T1 sequence (looked up): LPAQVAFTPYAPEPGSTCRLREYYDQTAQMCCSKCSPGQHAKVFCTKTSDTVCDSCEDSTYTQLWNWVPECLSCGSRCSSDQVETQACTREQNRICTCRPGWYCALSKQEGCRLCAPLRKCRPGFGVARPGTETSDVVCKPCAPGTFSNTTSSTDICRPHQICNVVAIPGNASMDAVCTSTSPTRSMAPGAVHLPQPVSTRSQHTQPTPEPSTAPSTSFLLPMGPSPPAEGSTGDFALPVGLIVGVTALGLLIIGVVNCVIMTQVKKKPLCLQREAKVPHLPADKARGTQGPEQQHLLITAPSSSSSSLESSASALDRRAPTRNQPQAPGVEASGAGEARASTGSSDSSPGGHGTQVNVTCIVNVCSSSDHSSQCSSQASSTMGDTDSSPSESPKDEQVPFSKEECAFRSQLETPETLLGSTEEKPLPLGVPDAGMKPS
# T2: Cynomolgus TNFR2-His (Sino 90102-C08H) (cynomolgus monkey, UniProt A0A2K5VET2 132-366)
# T2 construct: Bought protein; also called cynomolgus monkey TNFR2; recombinant cynomolgus monkey TNFR2 protein; not shown: His tag
# T2 sequence: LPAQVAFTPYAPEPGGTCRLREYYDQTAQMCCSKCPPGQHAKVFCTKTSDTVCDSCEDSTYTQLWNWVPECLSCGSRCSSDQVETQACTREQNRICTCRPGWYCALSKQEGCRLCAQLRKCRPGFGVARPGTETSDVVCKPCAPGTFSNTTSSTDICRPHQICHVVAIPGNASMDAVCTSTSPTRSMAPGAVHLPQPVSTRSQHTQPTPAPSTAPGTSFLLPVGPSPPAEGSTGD
# T3: Human TNFR2-His (Sino 10417-H08H) (human, UniProt P20333 23-257)
# T3 construct: Bought protein; also called recombinant human TNFR2 protein; not shown: His tag
# T3 sequence (looked up): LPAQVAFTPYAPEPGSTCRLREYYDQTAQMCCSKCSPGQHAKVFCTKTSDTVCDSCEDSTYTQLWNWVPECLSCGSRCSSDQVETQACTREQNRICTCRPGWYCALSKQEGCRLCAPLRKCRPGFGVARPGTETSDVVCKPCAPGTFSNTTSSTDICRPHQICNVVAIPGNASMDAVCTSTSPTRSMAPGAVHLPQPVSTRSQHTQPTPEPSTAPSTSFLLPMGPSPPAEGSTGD
# Assays:
# [1] = target: T1, human TNFR2 on the surface of CHO-TNFR2 …; test: competition flow cytometry on CHO-TNFR2 cells, competitor human TNFα-biotin
# Experimental: CHO stable cells highly expressing human TNFR2 were used for the experiment (the same as CHO-TNFR2 in Example 4). The CHO-TNFR2 cells were digested, washed twice with DPBS, then stained with Live/Dead (L/D) (20 minutes at room temperature), and plated at a density of 1×10⁵ cells/50 μl/well. A test anti-TNFR2 antibody was diluted to 6 μg/ml with a staining buffer as the starting concentration: the antibody was subjected to 3.33-fold gradient dilution, with a total of 7 concentration points. The diluted antibody was added to the plated cells at 50 μl/well, and the mixture was mixed well by gentle pipetting, and incubated at 4° C. for 30 minutes. Then the diluted 100 ng/ml of human TNFα-biotin was added at 100 μl/well, and the mixture was mixed well by gentle pipetting, and then incubated at 4° C. for 30 minutes. The mixture was washed twice with a staining buffer, and then 0.12 μg/ml PE-streptavidin (BioLegend, Cat #405204) was added at 100 μl/well; the resulting mixture was incubated at 4° C. for 30 minutes. The mixture was washed twice with a staining buffer, and then 150 μl of staining buffer was added to resuspend the cells; signals were detected by a flow cytometer (Thermo Attune NxT). The inhibitory curve of an antibody was drawn with antibody concentration as the abscissa and corresponding MFI value as the ordinate, and fitted with four parameters (GraphPad Prism9) to calculate the IC50 value. The smaller the IC50 value, the stronger the ability of an antibody to inhibit the binding of human TNFα to human TNFR2. The blocking effect of a humanized antibody was normalized to its corresponding human-murine chimeric WT antibody. The higher the percentage value, the better the inhibitory effect of the humanized antibody.
# [2] = target: T2, Cynomolgus TNFR2-His (Sino 90102-C08H); test: ELISA, cynomolgus TNFR2-His coated
# Experimental: (§1) The test humanized antibody against TNFR2 (as described in Example 1, the antibody was comprised of variable regions linked to IgG-Fc; the WT chimeric antibody also adopted the IgG-Fc structure) was subjected to 3.33-fold gradient dilution, loaded with 100 μl/well, and incubated with shaking at room temperature for 1.5 hours. The plate was washed, and then a working solution of murine anti-human IgG Fc-HRP (diluted at 1:10000) was added, loaded with 100 μl/well, and incubated with shaking at room temperature for 1.0 hour. The plate was washed again, and then the substrate TMB of HRP was added to develop colour. A stop solution was added to stop the reaction, and then a microplate reader (MD 13) was used to read the absorbance value. The binding curve of an antibody was drawn with antibody concentration as the abscissa and corresponding OD value as the ordinate, and fitted with four parameters (GraphPad Prism9) to calculate the EC50 value. The smaller the EC50 value, the stronger the binding ability of an antibody to human/cynomolgus monkey TNFR2. The binding effect of a humanized antibody was normalized to its corresponding human-murine chimeric antibody WT (see SEQ ID NOs: 38-43 for the sequence). The higher the percentage value, the better the binding effect of the humanized antibody. The results of binding of an anti-TNFR2 antibody to a human TNFR2 protein are shown in FIG. 1 and Table 4, and the results of binding of an anti-TNFR2 antibody to cynomolgus monkey TNFR2 are shown in FIG. 2 and Table 4.
# [3] = target: T3, Human TNFR2-His (Sino 10417-H08H); test: ELISA, human TNFR2-His coated
# Experimental: as §1
IC50 [1],EC50 [2],EC50 [3],Binder
0.087 µg/mL,0.00927 µg/mL,0.00894 µg/mL,"001-Hu4 (antibody, V domains shown, Humanized form of #001; also called VH2 + VL4) VH: EVQLVESGGGLVQPGGSLRLSCAASGFAFSTYDLSWVRQAPGKGLEWVAYINNGGISTYYSDTVKGRFTISRDNAKNSLYLQMNSLRAEDTAVYYCVRGPFYGSANYFDYWGQGTLVTVSS VL: DIQMTQSPSSLSASVGDRVTITCRTSESIYSNLPWYQQKPGKSPKLLVYDATKLAEGVPSRFSGSGSGTDYTLTISSLQPEDFATYYCQHFWVTPWTFGQGTKVEIK"
0.085 µg/mL,0.0099 µg/mL,0.0101 µg/mL,"001-Hu3 (antibody, V domains shown, Humanized form of #001; also called VH1 + VL3) VH: EVQLVESGGGLVQPGGSLRLSCAASGFAFSTYDLSWVRQAPGKGLEWVAYINNGGISTYYSDTVKGRFTISRDNAKNTLYLQMNSLRAEDTAVYYCVRGPFYGSANYFDYWGQGTLVTVSS VL: DIQMTQSPSSLSASVGDRVTITCRTSESIYSNLPWYQQKPGKAPKLLIYDATKLAEGVPSRFSGSGSGTDYTLTISSLQPEDFATYYCQHFWVTPWTFGQGTKVEIK"
0.061 µg/mL,0.00997 µg/mL,0.0111 µg/mL,"224-Hu6 (antibody, V domains shown, Humanized form of #224; also called VH8 + VL7) VH: QVQLVQSGAEVKKPGASVKVSCKASGFNNKDIYMHWVRQAPGQGLEWIGRIDPATGNTKHDPKFQDRVTMTSDTSTNTVYMELSSLRSEDTAVYYCARSPYGDFGAMDYWGQGTLVTVSS VL: DIQMTQSPSSLSASVGDRVTITCTASSSVSSNYLHWYQQKPGSSPKLWIYSTSNLPSGVPSRFSGSGSGTDFTLTISSLQPEDFATYYCHQYHRSPWTFGQGTKVEIK"
0.043 µg/mL,0.0123 µg/mL,0.0168 µg/mL,"219-Hu4 (antibody, V domains shown, also called VH6 + VL5) VH: QVQLVQSGAEVKKPGSSVKVSCKASGYSFTNYWMNWVKQAPGQGLEWIGMIHPSDTETRLNQNFKDKATLTVDKSTSTAYMELSSLRSEDTAVYYCARGEGLGAARSVSMDYWGQGTLVTVSS VL: DIQMTQSPSSLSASVGDRVTITCRASQDISNYLNWYQQKPDGTVKLLIYYTAILHSGVPSRFSGSGSGTDYSLTISSLQPEDFATYFCQQGNTLPWTFGQGTKVEIK"

# The next lines start with the binder.
Binder,IC50 [1],EC50 [2],EC50 [3]
"001-Hu5 (antibody, V domains shown, Humanized form of #001; also called VH1 + VL4) VH: EVQLVESGGGLVQPGGSLRLSCAASGFAFSTYDLSWVRQAPGKGLEWVAYINNGGISTYYSDTVKGRFTISRDNAKNTLYLQMNSLRAEDTAVYYCVRGPFYGSANYFDYWGQGTLVTVSS VL: DIQMTQSPSSLSASVGDRVTITCRTSESIYSNLPWYQQKPGKSPKLLVYDATKLAEGVPSRFSGSGSGTDYTLTISSLQPEDFATYYCQHFWVTPWTFGQGTKVEIK",0.093 µg/mL,0.00988 µg/mL,0.0102 µg/mL
"001-Hu1 (antibody, V domains shown, Humanized form of #001; also called VH1 + VL1) VH: EVQLVESGGGLVQPGGSLRLSCAASGFAFSTYDLSWVRQAPGKGLEWVAYINNGGISTYYSDTVKGRFTISRDNAKNTLYLQMNSLRAEDTAVYYCVRGPFYGSANYFDYWGQGTLVTVSS VL: DIQMTQSPSSLSASVGDRVTITCRTSESIYSNLPWYQQKPGKAPKLLLYDATKLAEGVPSRFSGSGSGTDYTLTISSLQPEDFATYYCQHFWVTPWTFGQGTKVEIK",0.087 µg/mL,0.00962 µg/mL,0.00986 µg/mL
"001-Hu2 (antibody, V domains shown, Humanized form of #001; also called VH2 + VL2) VH: EVQLVESGGGLVQPGGSLRLSCAASGFAFSTYDLSWVRQAPGKGLEWVAYINNGGISTYYSDTVKGRFTISRDNAKNSLYLQMNSLRAEDTAVYYCVRGPFYGSANYFDYWGQGTLVTVSS VL: DIQMTQSPSSLSASVGDRVTITCRTSESIYSNLPWYQQKPGKSPKLLIYDATKLAEGVPSRFSGSGSGTDFTLTISSLQPEDFATYYCQHFWVTPWTFGQGTKVEIK",0.101 µg/mL,0.00914 µg/mL,0.00956 µg/mL
"224-Hu1 (antibody, V domains shown, Humanized form of #224; also called VH8 + VL6) VH: QVQLVQSGAEVKKPGASVKVSCKASGFNNKDIYMHWVRQAPGQGLEWIGRIDPATGNTKHDPKFQDRVTMTSDTSTNTVYMELSSLRSEDTAVYYCARSPYGDFGAMDYWGQGTLVTVSS VL: DIQMTQSPSSLSASVGDRVTITCTASSSVSSNYLHWYQQKPGKAPKLWIYSTSNLPSGVPSRFSGSGSGTDFTLTISSLQPEDFATYYCHQYHRSPWTFGQGTKVEIK",0.042 µg/mL,0.00998 µg/mL,0.0104 µg/mL
"219-Hu3 (antibody, V domains shown, also called VH5 + VL5) VH: QVQLVQSGAEVKKPGSSVKVSCKASGYSFTNYWMNWVRQAPGQGLEWMGMIHPSDTETRLNQNFKDRVTITADKSTSTAYMELSSLRSEDTAVYYCARGEGLGAARSVSMDYWGQGTLVTVSS VL: DIQMTQSPSSLSASVGDRVTITCRASQDISNYLNWYQQKPDGTVKLLIYYTAILHSGVPSRFSGSGSGTDYSLTISSLQPEDFATYFCQQGNTLPWTFGQGTKVEIK",0.042 µg/mL,0.0127 µg/mL,0.021 µg/mL
"219-Hu2 (antibody, V domains shown, also called VH4 + VL5) VH: QVQLVQSGAEVKKPGSSVKVSCKASGYSFTNYWMNWVRQAPGQGLEWMGMIHPSDTETRLNQNFKDKATITADKSTSTAYMELSSLRSEDTAVYYCARGEGLGAARSVSMDYWGQGTLVTVSS VL: DIQMTQSPSSLSASVGDRVTITCRASQDISNYLNWYQQKPDGTVKLLIYYTAILHSGVPSRFSGSGSGTDYSLTISSLQPEDFATYFCQQGNTLPWTFGQGTKVEIK",0.039 µg/mL,0.0113 µg/mL,0.0185 µg/mL
"219-Hu1 (antibody, V domains shown, also called VH3 + VL5) VH: QVQLVQSGAEVKKPGASVKVSCKASGYSFTNYWMNWVRQAPGQRLEWMGMIHPSDTETRLNQNFKDRVTITRDTSASTAYMELSSLRSEDTAVYYCARGEGLGAARSVSMDYWGQGTLVTVSS VL: DIQMTQSPSSLSASVGDRVTITCRASQDISNYLNWYQQKPDGTVKLLIYYTAILHSGVPSRFSGSGSGTDYSLTISSLQPEDFATYFCQQGNTLPWTFGQGTKVEIK",0.047 µg/mL,0.0148 µg/mL,0.0213 µg/mL
"219-Hu5 (antibody, V domains shown, also called VH7 + VL5) VH: QVQLVQSGAEVKKPGSSVKVSCKASGYSFTNYWMNWVRQAPGQGLEWMGMIHPSDTETRLNQNFKDRVTITVDKSTSTAYMELSSLRSEDTAVYYCARGEGLGAARSVSMDYWGQGTLVTVSS VL: DIQMTQSPSSLSASVGDRVTITCRASQDISNYLNWYQQKPDGTVKLLIYYTAILHSGVPSRFSGSGSGTDYSLTISSLQPEDFATYFCQQGNTLPWTFGQGTKVEIK",0.039 µg/mL,0.0122 µg/mL,0.0173 µg/mL
